Measured values from patent US20040048327A1 (GEORGIA TECH RESEARCH, published 2004).
Numbered stars: 1 amine (or outer) side, 2 acyl side, 3 side chain; on linkers, the order of the positions; unused ones are H or OH. Square brackets hold non-standard residues; d marks the D form. * marks the point of attachment. AAsn = aza-asparagine, NC(=O)CN(N[*:1])C(=O)[*:2]; AAsp = aza-Asp, O=C(N(CC(=O)[*:3])N[*:1])[*:2]; azaAsp = O=C(N(CC(=O)[*:3])N[*:1])[*:2]; PhPr = N-terminal cap as named (PhPr); azaAsn = NC(=O)CN(N[*:1])C(=O)[*:2]; (S,S)‑EP = not defined here; trans‑EP = not defined here; Cbz = O=C(OCc1ccccc1)*

Columns and labels:
Experiment in all cases: cell-based or functional assay
[1] = target: T1, schistosome legumain SmAE (Schistosoma mansoni asparaginyl endopeptidase) (Schistosoma mansoni, UniProt P09841 32-291)
T1 sequence (looked up): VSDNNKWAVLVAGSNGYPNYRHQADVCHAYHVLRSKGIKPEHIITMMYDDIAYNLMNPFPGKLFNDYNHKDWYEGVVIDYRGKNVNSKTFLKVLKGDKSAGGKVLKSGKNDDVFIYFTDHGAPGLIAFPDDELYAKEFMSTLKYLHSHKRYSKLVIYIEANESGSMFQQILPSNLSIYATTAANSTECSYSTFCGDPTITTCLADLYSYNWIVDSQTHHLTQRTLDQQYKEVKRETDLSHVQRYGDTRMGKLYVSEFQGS

caspase-3 = target: T2, caspase-3 (UniProt P42574 29-277, limits assumed)
T2 sequence (looked up): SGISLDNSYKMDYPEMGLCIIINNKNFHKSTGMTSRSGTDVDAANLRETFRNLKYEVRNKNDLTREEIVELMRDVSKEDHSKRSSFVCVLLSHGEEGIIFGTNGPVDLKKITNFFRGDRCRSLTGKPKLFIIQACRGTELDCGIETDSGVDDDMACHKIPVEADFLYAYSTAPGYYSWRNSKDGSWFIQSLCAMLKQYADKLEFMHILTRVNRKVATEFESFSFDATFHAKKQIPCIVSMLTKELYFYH

caspase-6 = target: T3, caspase-6 (UniProt P55212 24-293, limits assumed)
T3 sequence (looked up): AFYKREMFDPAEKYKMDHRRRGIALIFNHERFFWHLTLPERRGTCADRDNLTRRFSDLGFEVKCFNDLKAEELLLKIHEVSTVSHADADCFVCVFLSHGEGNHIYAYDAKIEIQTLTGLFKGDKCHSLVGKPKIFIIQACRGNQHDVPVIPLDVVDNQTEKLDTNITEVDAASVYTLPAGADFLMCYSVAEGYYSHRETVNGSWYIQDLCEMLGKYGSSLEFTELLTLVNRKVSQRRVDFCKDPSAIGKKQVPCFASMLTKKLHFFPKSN

[2] = target: T4, autolytically stable caspase-1 variant (D381 E) (UniProt P29466 120-404, limits assumed)
T4 sequence (looked up): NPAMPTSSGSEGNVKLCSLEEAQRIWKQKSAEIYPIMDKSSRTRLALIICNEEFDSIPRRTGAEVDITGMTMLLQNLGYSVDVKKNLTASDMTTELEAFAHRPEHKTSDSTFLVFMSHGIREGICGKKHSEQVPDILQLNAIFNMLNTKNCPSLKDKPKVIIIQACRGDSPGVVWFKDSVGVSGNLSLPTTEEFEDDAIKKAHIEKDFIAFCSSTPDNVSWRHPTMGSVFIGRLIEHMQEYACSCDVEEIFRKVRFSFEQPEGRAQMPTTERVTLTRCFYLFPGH

[3] = target: secreted aspartic proteinase 2 (SAP-2) from Candida albicans (Candida albicans)
HIV-1 protease = HIV-1 protease (HIV-1)
[4] = target: plasmepsin 2 (from P. falciparum) (P. falciparum, UniProt P46925 125-453, limits assumed)
porcine pepsin = porcine pepsin (porcine, UniProt P00791 60-385)
human cathepsin D = human cathepsin D (human, UniProt P07339 65-412)
human cathepsin D, sequence (P07339 65-412 limits assumed): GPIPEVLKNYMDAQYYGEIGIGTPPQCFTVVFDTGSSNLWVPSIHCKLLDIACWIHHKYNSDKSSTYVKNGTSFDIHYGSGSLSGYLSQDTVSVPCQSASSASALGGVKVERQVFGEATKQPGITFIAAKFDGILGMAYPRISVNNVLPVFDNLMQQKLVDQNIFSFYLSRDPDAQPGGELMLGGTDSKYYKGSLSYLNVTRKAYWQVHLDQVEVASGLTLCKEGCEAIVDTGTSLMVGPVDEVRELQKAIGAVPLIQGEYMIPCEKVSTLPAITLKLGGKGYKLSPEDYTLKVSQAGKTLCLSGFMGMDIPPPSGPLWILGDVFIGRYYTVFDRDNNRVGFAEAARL

porcine pepsin, sequence (P00791 60-385 limits assumed): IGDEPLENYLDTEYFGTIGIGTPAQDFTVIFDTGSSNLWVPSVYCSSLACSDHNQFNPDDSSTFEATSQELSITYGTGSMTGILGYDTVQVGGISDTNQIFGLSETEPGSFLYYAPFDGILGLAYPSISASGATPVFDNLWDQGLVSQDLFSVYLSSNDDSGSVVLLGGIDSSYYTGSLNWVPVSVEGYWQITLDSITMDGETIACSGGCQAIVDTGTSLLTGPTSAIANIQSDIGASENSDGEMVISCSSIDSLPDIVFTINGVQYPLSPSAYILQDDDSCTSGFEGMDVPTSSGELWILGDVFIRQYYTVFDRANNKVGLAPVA
plasmepsin 2 (from P. falciparum), sequence (P46925 125-453 limits assumed): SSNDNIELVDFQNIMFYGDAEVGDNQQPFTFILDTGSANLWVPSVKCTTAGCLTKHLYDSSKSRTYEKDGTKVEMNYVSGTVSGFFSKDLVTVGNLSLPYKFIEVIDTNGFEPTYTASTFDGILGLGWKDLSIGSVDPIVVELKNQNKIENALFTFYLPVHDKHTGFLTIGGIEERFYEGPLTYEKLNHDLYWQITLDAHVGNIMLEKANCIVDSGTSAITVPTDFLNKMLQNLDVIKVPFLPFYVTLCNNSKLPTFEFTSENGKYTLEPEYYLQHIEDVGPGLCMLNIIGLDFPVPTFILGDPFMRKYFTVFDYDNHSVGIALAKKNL

B1: Cbz-Ala-Ala-AAsn-(trans)-EP-Ph-4-Cl (peptide)
peptide: Cbz-Ala-Ala-[AAsn]-{trans‑EP-Ph‑4‑Cl}
modifications: reading uncertain; also: printed as Cbz-Ala-Ala-AAsn-(trans)-EP-Ph-4-Cl
IC50 [1]: 90 nM

B2: Cbz-Ile-Glu-Thr-AAsp-(2S,3S)-EP-CON(CH3)CH2Ph (peptide)
peptide: Cbz-IET[azaAsp]-{(2S,3S)‑EP‑CON(CH3)CH2Ph}
k2 (caspase-3): 4780 M⁻¹ s⁻¹ | k2 (caspase-6): 47700 M⁻¹ s⁻¹

B3: Cbz-Ala-Ala-AAsn-(trans)-EP-CH2CH2Ph (peptide)
peptide: Cbz-Ala-Ala-[AAsn]-{trans‑EP-CH2CH2Ph}
modifications: reading uncertain; also: printed as Cbz-Ala-Ala-AAsn-(trans)-EP-CH2CH2Ph
IC50 [1]: 70 nM

B4: PhPr-Val-Ala-AAsp-(2S,3S)-EP-CON(CH3)CH2Ph (peptide)
peptide: PhPr-Val-Ala-[AAsp]-{(2S,3S)‑EP‑CON(CH3)CH2Ph}
k2 (caspase-3): 1950 M⁻¹ s⁻¹ | k2 (caspase-6): 136 M⁻¹ s⁻¹

B5: Cbz-Ala-Ala-AAsn-(S, S)-EP-CON(CH3)CH2Ph (peptide)
peptide: Cbz-Ala-Ala-[AAsn]-{(S,S)‑EP-CON(CH3)CH2Ph}
modifications: reading uncertain; also: printed as Cbz-Ala-Ala-AAsn-(S, S)-EP-CON(CH3)CH2Ph
IC50 [1]: 63 nM

B6: PhPr-Val-Ala-AAsp-(2S,3S)-EP-CON(CH2CH2CH2CH3)2 (peptide)
peptide: PhPr-Val-Ala-[AAsp]-{(2S,3S)‑EP‑CON(CH2CH2CH2CH3)2}
k2 (caspase-3): 520 M⁻¹ s⁻¹ | k2 (caspase-6): 53 M⁻¹ s⁻¹ | k2 [2]: 26200 M⁻¹ s⁻¹

B7: Cbz-Ala-Ala-AAsn-(2S, 3S)-EP-COOEt (peptide)
peptide: Cbz-Ala-Ala-[azaAsn]-{(2S,3S)‑EP‑COOEt}
inhibition of substrate hydrolysis [3]: < 20 % inhibition | inhibition of substrate hydrolysis (HIV-1 protease): < 20 % inhibition | inhibition of substrate hydrolysis [4]: < 20 % inhibition | inhibition of substrate hydrolysis (porcine pepsin): < 20 % inhibition | inhibition of substrate hydrolysis (human cathepsin D): < 20 % inhibition | IC50 [1]: 53 nM

B8: Cbz-Ile-Glu-Thr-AAsp-(2S,3S)-EP-CON(CH2Ph)2 (peptide)
peptide: Cbz-IET[azaAsp]-{(2S,3S)‑EP‑CON(CH2Ph)2}
k2 (caspase-3): 3550 M⁻¹ s⁻¹ | k2 (caspase-6): 32000 M⁻¹ s⁻¹

B9: PhPr-Val-Ala-AAsp-(2S,3S)-EP-CON(CH2Ph)2 (peptide)
peptide: PhPr-Val-Ala-[AAsp]-{(2S,3S)‑EP‑CON(CH2Ph)2}
k2 (caspase-3): 830 M⁻¹ s⁻¹ | k2 (caspase-6): 145 M⁻¹ s⁻¹ | k2 [2]: 101000 M⁻¹ s⁻¹
